The target of assay [1] is T1, recombinant human CD123-Fc (human, UniProt P26951 19-305, limits assumed).
T1 construct: Treated as one molecule; also called CD123-Fc peptide (Novoprotein); recombinant IL3R-alpha Fc-tagged; not shown: Fc tag
T1 sequence (looked up): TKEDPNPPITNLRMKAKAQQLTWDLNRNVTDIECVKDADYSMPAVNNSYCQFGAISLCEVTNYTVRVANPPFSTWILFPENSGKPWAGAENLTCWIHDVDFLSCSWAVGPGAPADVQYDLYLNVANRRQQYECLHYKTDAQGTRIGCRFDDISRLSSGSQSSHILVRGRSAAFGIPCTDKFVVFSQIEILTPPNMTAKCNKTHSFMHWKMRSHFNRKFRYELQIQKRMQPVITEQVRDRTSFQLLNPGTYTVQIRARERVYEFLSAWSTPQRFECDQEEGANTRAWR
As to the kind of experiment: flow cytometry, CAR T cells stained with recombinant IL3R-alpha Fc-tagged, anti-Fc AF647. The method, then: Half million CAR T cells were washed two times in cold AutoMACS buffer supplemented with 0.5% bovine serum albumin (Miltenyi Biotec, Bergisch Gladbach, Germany) and stained with 2.5 ug/ml CD123-Fc peptide (Novoprotein, Summit, NJ), followed by anti Fc-AF647 conjugate (Jackson ImmunoResearch, West Grove, PA). The 7-Aminoactinomycin D staining (7-AAD, BD Biosciences, San Jose, CA) was added to exclude dead cells. Non-transduced cells (UTD) were used as a negative control. Cells were washed twice with AutoMACS buffer supplemented with 0.5% bovine serum albumin, resuspended in 200 ul staining buffer and acquired by flow cytometry. Flow cytometric analysis was performed on a MACSQuant® 10 Analyzer (Miltenyi Biotec), and data plots were generated using FlowJo software (Ashland, OR).
Lentiviral vectors encoding the CD123 CAR constructs were used for CAR transduction into human primary T cells at multiplicity of infection (MOI) of 40. CAR surface expression of transduced T cells by flow cytometry using recombinant IL3R-alpha Fc-tagged, followed by staining with anti-Fc Alexa Flour 647.
Background: In flow cytometry, cells or beads pass a laser one at a time.

Assay [2] addresses T2, recombinant human CD123 (human, UniProt P26951 19-305, limits assumed).
T2 construct: also called coated CD123
T2 sequence (looked up): T1 sequence (looked up)
As to the kind of experiment: ELISA, soluble scFv on coated recombinant human CD123. The protocol: After each round of incubation, the wells were washed 10 times for the first round, 20 times for the second round and 30 times for the third round with phosphate-buffered saline containing 0.05% Tween 20 (PBST) to remove nonspecifically bound phage. Antigen binding phage were eluted with 100 µl 10 µg/ml Trypsin diluted in PBS and mixed with TG1 competent cells for 1 hour at 37° C., and the phage was amplified from the infected cells and used in the next round of biopanning. After the third round of biopanning, 376 clones were randomly picked from the infected TG1 cells and each inoculated into 150 µl 2YT medium containing 100 µg/ml ampicillin and 200 mM glucose in 96-well plates by using the automated colony picking system (Molecular Devices, QPix 460) and were incubated at 37° C. overnight in a shaker at 300 rpm. Next day 10 µl of the bacterial cultures were used to inoculate 150 µl 2YT medium containing 100 µg/ml ampicillin and 50 µM isopropyl-β-d-thiogalactopyranoside in 96-well plates and the plates were further incubated at 30° C. overnight in a shaker at 300 rpm. […] The supernatants were incubated for 1 h at room temperature with recombinant human CD123 coated at 30 ng per well in 384-well plates and washed three times with PBST, (after overnight incubation at 4° C. it was blocked with 2% BSA in PBS containing 0.05% Tween 20 and washed three times with PBS containing 0.05% Tween 20.) After incubation the 3,3,′5,5′-tetramethylbenzidine (TMB) substrate was added, and solution absorbance at 450 nm (A450) measured. Clones that bound to CD123 with a signal to noise ratio of >5 were selected for further characterization.
Background: An ELISA detects its analyte on a solid surface through an enzyme-linked reagent.

In assay [3] the target is T3, CD123 on cells (MOLM-13, MOLM14, KG-1a, RS4;11-CD123) (human, UniProt P26951 19-378).
T3 construct: whole, on cells; also called CD123 antigen; CD123/IL-3 receptor alpha
T3 sequence (P26951 19-378): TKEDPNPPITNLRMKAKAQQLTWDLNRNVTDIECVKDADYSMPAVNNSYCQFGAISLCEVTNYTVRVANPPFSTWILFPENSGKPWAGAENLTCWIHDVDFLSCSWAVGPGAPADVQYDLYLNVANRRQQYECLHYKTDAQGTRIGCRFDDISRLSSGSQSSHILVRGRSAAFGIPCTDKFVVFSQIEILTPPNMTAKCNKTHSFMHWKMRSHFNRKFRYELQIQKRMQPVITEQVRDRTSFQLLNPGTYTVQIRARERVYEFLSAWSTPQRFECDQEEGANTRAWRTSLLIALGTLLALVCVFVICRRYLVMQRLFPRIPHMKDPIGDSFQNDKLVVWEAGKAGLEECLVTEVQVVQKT
As to the kind of experiment: flow cytometry, soluble scFv on CD123-positive MOLM-13 cells, anti-His-APC. The method, then:
Identified binders from ELISA were tested on CD123-positive the cell line MOLM-13. The CD123-negative cell line Jeko-1 CD20KO eGFP served as negative control. For positive control staining REAL270 (alpha CD123) and REAL116 (alpha CD123) antibodies were used, respectively. Soluble scFvs were expressed as described above. The bacterial pellets were disrupted by incubation with 0.3 mL TE buffer (10 mM Tris-HCl containing 1 mM EDTA, pH 8.0 at 37° C.)/well at 37° C., 250 rpm for 18 hours. Cultures were centrifuged at 4000xg, RT for 20 minutes and the supernatant was transferred to a fresh microtiter plate.
For cell staining cell number and viability were determined at MACSQuantX. A cell suspension containing needed cell number were centrifuged at 300xg, 4° C. for 10 minutes and supernatant was discarded. Cells are resuspended by addition of PEB buffer (1xPBS + 2 mM EDTA, 0.5% BSA pH 7.4 at RT) to a concentration of 1E+06 cells/mL. One hundred thousand cells per cell line were added to each well of 96-well V-bottom plate and the plate were centrifuged at 1300xg, 4° C. for 2 minutes. The supernatant was discarded, cells were resuspended in 100 µL of supernatant from periplasmatic preparation and cells were incubated for 10 minutes on ice. Cells were washed by addition of 100 µL PEB followed by centrifugation (1300 x g, 4° C. for 2 minutes), twice. Fifty microliter of secondary (Anti-His-APC conjugated antibody) or REAL antibody (diluted 1:50 in PEB buffer) per well were added and the plate is incubated for 10 minutes in the dark at 4° C. Cells were washed by addition of 100 µL PEB followed by centrifugation (1300xg, 4° C. for 2 minutes), twice. Propidium iodide was diluted 1:100 in Fixing solution (1xPBS + 2 mM EDTA + 1% PFA + 0.3% MeOH + 3% NaAzide) and washed cells were resuspended in 50 µL of the mixture. Signals are measured at MACSQuantX. Signals were analyzed using FlowLogic software. Statistical analysis was performed with VORTEX software.

B1: CAR D0127 CD123 MB35-E02 CD8 BBz (other)
chain: QVQLVQSGAEVKKPGSSVKVSCKASGGTFSSYAISWVRQAPGQGLEWMGGIIPIFGTANYAQKFQGRVTITADESTSTAYMELSSLRSEDTAVYYCARHGGMATMLPYGAFDIWGQGTMVTVSSGGGGSGGGGSGGGGSDIRLTQSPSSLSASVGDRVTITCRASQGISSYLNWYQQKPGKAPKLLIYAASRLQSGVPSRFSGSGSGTDFTLTISSLQPEDFATYYCQQSYSTSLTFGGGTKVEIKAAATTTPAPRPPTPAPTIASQPLSLRPEACRPAAGGAVHTRGLDFACDIYIWAPLAGTCGVLLLSLVITLYCKRGRKKLLYIFKQPFMRPVQTTQEEDGCSCRFPEEEEGGCELRVKFSRSADAPAYQQGQNQLYNELNLGRREEYDVLDKRRGRDPEMGGKPRRKNPQEGLYNELQKDKMAEAYSEIGMKGERRRGKGHDGLYQGLSTATKDTYDALHMQALPPR
notes: Chimeric antigen receptor on transduced human primary T cells; also called EF-1a-CD123 MB35-E02 CD8 BBz
Consider B1, for which the binding result in assay [1] is “binds”.

B2: scFv MB35-E02 (scFv)
scFv: QVQLVQSGAEVKKPGSSVKVSCKASGGTFSSYAISWVRQAPGQGLEWMGGIIPIFGTANYAQKFQGRVTITADESTSTAYMELSSLRSEDTAVYYCARHGGMATMLPYGAFDIWGQGTMVTVSSGGGGSGGGGSGGGGSDIRLTQSPSSLSASVGDRVTITCRASQGISSYLNWYQQKPGKAPKLLIYAASRLQSGVPSRFSGSGSGTDFTLTISSLQPEDFATYYCQQSYSTSLTFGGGTKVEIK
notes: Soluble scFv carried c-myc and His tags; also called CD123 (MB35-E02)
As for B2, the binding result in assay [2] and in assay [3] was “binds” each time.

B3: scFv MB36-A05 (scFv)
scFv: QVQLVQSGAEVKKPGSSVKVSCKASGGTFSSYAISWVRQAPGQGLEWMGGIIPIFGTANYAQKFQGRVTITADKSTSTAYMELSSLRSEDTAVYYCARGGRNSYYYYYMDVWGKGTTVTVSSGGGGSGGGGSGGGGSQSALTQPASVSGSPGQSITISCTGTSSDVGGYNYVSWYQQHPGKAPKLMIYEVSNRPSGVSNRFSGSKSGNTASLTISGLQAEDEADYYCSSYTSSSPVVFGGGTKLTVL
notes: Soluble scFv carried c-myc and His tags; also called CD123 (MB36-A05)
As to B3, the binding result in assay [2] and in assay [3] was “binds” each time.

B4: scFv MB42-D03 (scFv)
scFv: QVQLVQSGAEVKKPGASVKVSCKASGYTFTSYGISWVRQAPGQGLEWMGWISAYNGNTNYAQKLQGRVTMTTDTSTSTAYMELRSLRSDDTAVYYCARGAYYDFWSSYSWFDPWGQGTLVTVSSGGGGSGGGGSGGGGSSYVLTQPPSVSVAPGKTARITCGGNSIGSKSVQWYQQKPGQAPVLVIYDDSDRPSGIPERFSGSNSGNTATLTISRVEAGDEADYYCQVWDSSSDVVFGGGTKLTVL
notes: Soluble scFv carried c-myc and His tags; also called CD123 (MB42-D03)
For the molecule B4, the binding result in assay [2] and in assay [3] was “binds” throughout.

B5: scFv MB40-H08 (scFv)
scFv: QVQLVQSGAEVKKPGSSVKVSCKASGGTFSSYAISWVRQAPGQGLEWMGGIIPIFGTANYAQKFQGRVTITADESTSTAYMELSSLRSEDTAVYYCARNEWYSYYYYYMGVWGKGTTVTVSSGGGGSGGGGSGGGGSQSALTQPASVSGSPGQSITISCTGTSSDVGGYNYVSWYQQHPGKAPKLMIYEVSNRPSGVSNRFSGSKSGNTASLTISGLQAEDEADYYCSSYTSSSTLVVFGGGTKLTVL
notes: Soluble scFv carried c-myc and His tags; also called CD123 (MB40-H08)
With B5, the binding result in assay [2] and in assay [3] was “binds” each time.

B6: scFv MB44-H01 (scFv)
scFv: QVQLVQSGAEVKKPGSSVKVSCKASGGTFSSYAISWVRQAPGQGLEWMGGIIPIFGTANYAQRFQGRVTITADESTSTAYMELSSLRSEDTAVYYCARGLGTSYYYYYMDVWGKGTTVTVSSGGGGSGGGGSGGGGSQSVLTQPPSASGSPGQSVTISCTGTSSDVGGYNYVSWYQQHPGKAPKLMIYEVSNRPSGVSNRFSGSKSGNTASLTISGLQAEDEADYYCSSYTSSSTPVVFGGGTKLTVL
notes: Soluble scFv carried c-myc and His tags; also called CD123 (MB44-H01)
As for B6, the binding result in assay [2] and in assay [3] was “binds” throughout.

B7: scFv MB40-F08 (scFv)
scFv: QVQLVQSGAEVKKPGSSVKVSCKASGGTFSSYAISWVRQAPGQGLEWMGGIIPIFGTANYAQKFQGRVTITADESTSTAYMELSSLRSEDTAVYYCARGSGELLYASYYYYYMDVWGKGTTVTVSSGGGGSGGGGSGGGGSQSALTQPASVSGSPGQSITISCTGTSSDVGGYNYVSWYQQHPGKAPKLMIYEVSNRPSGVSNRFSGSKSGNTASLTISGLQAEDEADYYCSSYTSSSPLVFGTGTKVTVL
notes: Soluble scFv carried c-myc and His tags; also called CD123 (MB40-F08)
For B7, the binding result in assay [2] and in assay [3] was “binds” each time.

B8: scFv MB42-E02 (scFv)
scFv: QVQLVQSGAEVKKPGASVKVSCKASGYTFTSYGISWVRQAPGQGLEWMGWISAYNGNTNYAQKLQGRVTMTTDTSTSTAYMELRSLRSDDTAVYYCARGAYYDFWSGYSWFDPWGQGTLVTVSSGGGGSGGGGSGGGGSQSVLTQPPSVSVAPGQTARIPCGGNNIGSKGVHWYQQKSGQAPVMVVYDDSDRPSGIPERFSGSNSGNTATLTISRVEAGDEADYYCQVWDSSGDLVLFGGGTKLTVL
notes: Soluble scFv carried c-myc and His tags; also called CD123 (MB42-E02)
With B8, the binding result in assay [2] and in assay [3] was “binds” throughout.

B9: scFv MB42-E12 (scFv)
scFv: QVQLVQSGAEVKKPGASVKVSCKASGYTFTSYGISWVRQAPGQGLEWMGWISAYNGNTNYAQKLQGRVTMTTDTSTSTAYMELRSLRSDDTAVYYCARGAYYDFWSSYSWFDPWGQGTLVTVSSGGGGSGGGGSGGGGSSYVLTQPPSVSVAPGKTARITCGGNNIGSKSVHWYQQKPGQAPVLVVYDDSDRPSGIPERFSGSNSGNTATLTISRVEAGDEADYYCQVWDSSSDHVVFGGGTKLTVL
notes: Soluble scFv carried c-myc and His tags; also called CD123 (MB42-E12)
Regarding B9, the binding result in assay [2] and in assay [3] was “binds” each time.

B10: scFv MB31-A01 (scFv)
scFv: QIQLVQSGAEVKKPGSSVKVSCKASGGTFSSYAISWVRQAPGQGLEWMGGIIPIFGTANYAQKFQGRVTITADESTSTAYMELSSLRSEDTAVYYCARGSGELLYASYYYYYMDVWGKGTTVTVSSGGGGSGGGGSGGGGSQSALTQPASVSGSPGQSITISCTGTSSDVGGYNYVSWYQQHPGKAPELMIYDVSNRPSGVSNRFSGSKSGNTASLTISGLQAEDEADYYCSSYTSSSTPVVFGGGTKLTVL
notes: Soluble scFv carried c-myc and His tags (detection antibodies); also called CD123 (MB31-A01)
On to B10, for which the binding result in assay [2] and in assay [3] was “binds” in each case.

For the origin of these results see patent publication US20230338424A1 (LENTIGEN TECHNOLOGY, published 2023).
